In one data set the target is Taq DNA polymerase (Thermus aquaticus, UniProt P19821 P19821:1-832). Description: competition; ligand beacon (SEQ:4) fluorescence decreases with protein; PBSM buffer, 4 uM tRNA, 37C; FIG. 3A lists aptamer as SEQ:9. The following applies: tags: Roche Molecular Systems; predicted stem-loop. On the procedure:
(§1) Open circles represent the fluorescence signal obtained when the 100 nM PDGF aptamer was first incubated with 100 nM PDGF ligand beacon before the protein was added. Closed circles indicate the signal generated when 100 nM PDGF ligand beacon was mixed with increasing concentration of the PDGF AB-dimer in the absence of the aptamer. TAQ DNA Polymerase An assay using constant concentrations of TAQ nucleic acid ligand and TAQ ligand beacon, and varying concentrations of TAQ DNA polymerase, was carried out as described above. Again, the fluorescence emission decreased with increasing amounts of the ligand Taq Polymerase. Human L-Selectin A fixed concentration of L-selectin aptamer was mixed with increasing concentration of human L-selectin in SHMCK buffer [20 mM HEPES, 120 mM NaCl, 5 mM KCl, 1 mM MgCl_2, 1 mM CaCl_2, 4 µM tRNA, (pH 7.4)] and incubated for 10 minutes at 37° C. Then, L-selectin ligand beacon was added to a final concentration equivalent to that of the aptamer, incubated additional 10 minutes at 37° C. and fluorescence was measured. The results are depicted in FIGS. 7A and B. It can be seen that the dynamic range of the assay can be easily varied by changing the concentration of the nucleic acid ligand/ligand beacon pair. […] The fluorescence signal was then measured as described above. […]

Data set [1] deals with T1, PDGF-AB (platelet-derived growth factor AB dimer) (Homo sapiens, UniProt P04085;P01127 P04085:87-211,P01127:82-190). Nature of the data set: competition; specificity control, no concentration-dependent signal reduction; 100 nM aptamer, PBSM, 4 uM tRNA, 37C. The following applies: tags: R & D Systems; chain copies: heterodimer A+B (stated); predicted stem-loop. On the procedure:
In the example shown in FIG. 4C, TAQ-nucleic acid ligand (100 nM) was mixed with increasing concentrations of PDGF in PBSM buffer containing 4 μM tRNA at 37° C. for 10 minutes. Then 110 nM TAQ-ligand beacon was added, incubated for an additional 10 minutes at the same temperature and fluorescence was measured.

The target of data set [2] is T2, L-selectin (Homo sapiens, UniProt P14151 P14151:39-332).
T2 sequence: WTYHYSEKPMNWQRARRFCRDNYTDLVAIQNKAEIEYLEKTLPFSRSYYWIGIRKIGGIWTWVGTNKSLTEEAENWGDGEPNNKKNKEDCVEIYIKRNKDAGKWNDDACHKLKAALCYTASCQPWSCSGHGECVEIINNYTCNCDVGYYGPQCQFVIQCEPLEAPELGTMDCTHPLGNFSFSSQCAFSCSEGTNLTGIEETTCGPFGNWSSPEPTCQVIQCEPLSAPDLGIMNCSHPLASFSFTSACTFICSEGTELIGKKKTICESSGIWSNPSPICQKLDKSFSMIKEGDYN
Description: competition; specificity control, little or no fluorescence change; 200 nM aptamer, SHMCK, 4 uM tRNA, 37C. The settings on record: tags: R & D Systems. As to the method:
(§2) Specifically, L-Selectin nucleic acid ligand (200 nM) was mixed with increasing concentrations of P-Selectin in SHMCK buffer containing 4 µM tRNA. The mixture was incubated at 37° C. for 15 minutes. Then 220 nM L-Selectin ligand beacon was added and the mixture was incubated an additional 10 minutes at the same temperature and fluorescence was measured (FIG. 8C; (•)). P-Selectin nucleic acid ligand (200 nM) was mixed with increasing concentrations of L-Selectin in SHMCK buffer containing 4 µM tRNA at 37° C. for 15 minutes. Then 220 nM P-Selectin ligand beacon was added, incubated for an additional 10 minutes at the same temperature and fluorescence was measured (FIG. 8C; (○)).

In data set [3] the target is T3, P-selectin (Homo sapiens, UniProt P16109 P16109:42-771). Nature of the data set: competition; ligand beacon (SEQ:8); 200 nM aptamer, SHMCK buffer 1 mM MgCl2 1 mM CaCl2, 4 uM tRNA, pH 7.4, 37C; also detected in plasma; FIG. 3A lists aptamer as SEQ:12. The following applies: tags: R & D Systems. As to the method:
as §1, with “Human L-Selectin A fixed concentration of L-selectin aptamer was mixed with increasing concentration of human L-selectin in SHMCK buffer [20 mM HEPES, 120 mM NaCl, 5 mM KCl, 1 mM MgCl_2, 1 mM CaCl_2, 4 µM tRNA, (pH 7.4)] and incubated for 10 minutes at 37° C.” left out, “measured.” for “measured. The results are depicted in FIGS. 7A and B. It can be seen that the dynamic range of the assay can be easily varied by changing the concentration of the nucleic acid ligand/ligand beacon pair.”
P-selectin aptamer (200 nM) was mixed with increasing concentration of human P-selectin in SHMCK buffer [20 mM HEPES, 120 mM NaCl, 5 mM KCl, 1 mM MgCl_2, 1 mM CaCl_2, 4µM tRNA, (pH 7.4)] and incubated for 10 minutes at 37° C. Then, P-selectin ligand beacon was added to a final concentration of 200 nM, incubated for additional 10 minutes at 37° C. and fluorescence was measured. […]

For data set [4], the target named is T1, PDGF-AB (platelet-derived growth factor …). Nature of the data set: competition; ligand beacon (SEQ:2) fluorescence decreases with protein; 160 nM aptamer, PBSM buffer 1 mM MgCl2, 4 uM tRNA, pH 7.4, 37C; also detected in plasma; FIG. 3A lists aptamer as SEQ:10. The settings on record: tags: R & D Systems; chain copies: heterodimer A+B (stated); predicted 3-way junction. On the procedure: Example 5 Protein Detection Using Ligand Beacon Assays PDGF AB-Dimer The PDGF ligand beacon was used in an assay in which 160 nM PDGF nucleic acid ligand (SEQ ID NO:1) was mixed with an increasing concentration of PDGF AB-dimer in PBSM buffer [10.1 mM Na_2HPO_4, 1.8 mM KH_2PO_4, 137 mM NaCl, 2.7 mM KCl, 1 mM MgCl_2, 4 μM tRNA (pH 7.4)] for 10 minutes at 37° C. Then, ligand beacon (SEQ ID NO:2) was added to a final concentration of 160 nM and the mixture was incubated for 10 minutes at 37° C. A measurement of fluorescein emission at 530 nm was made for each concentration of PDGF using 488 nm monochromatic laser light for excitation in a 96 well format Vistra Fluorimager SI. The average value of fluorescence signals derived from duplicates was plotted against the corresponding log concentration of the concentration PDGF AB-dimer in nanomoles.

The target in data set [5] is T3, P-selectin. Nature of the data set: competition; specificity control, little or no fluorescence change; 200 nM aptamer, SHMCK, 4 uM tRNA, 37C. The following applies: tags: R & D Systems. As to the method:
as §2

The target in data set [6] is T2, L-selectin. Description: competition; ligand beacon (SEQ:6); 200 or 800 nM aptamer, SHMCK buffer 1 mM MgCl2 1 mM CaCl2, 4 uM tRNA, pH 7.4, 37C; also detected in plasma. The following applies: tags: R & D Systems. As to the method: as §1

T1 sequence (P01127 82-190, chain 2 of 2, other chains not shown): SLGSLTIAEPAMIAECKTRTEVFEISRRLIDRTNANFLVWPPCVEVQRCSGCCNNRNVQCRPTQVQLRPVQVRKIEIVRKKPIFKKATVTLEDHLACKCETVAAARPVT
T3 sequence (P16109 42-771, one chain of several): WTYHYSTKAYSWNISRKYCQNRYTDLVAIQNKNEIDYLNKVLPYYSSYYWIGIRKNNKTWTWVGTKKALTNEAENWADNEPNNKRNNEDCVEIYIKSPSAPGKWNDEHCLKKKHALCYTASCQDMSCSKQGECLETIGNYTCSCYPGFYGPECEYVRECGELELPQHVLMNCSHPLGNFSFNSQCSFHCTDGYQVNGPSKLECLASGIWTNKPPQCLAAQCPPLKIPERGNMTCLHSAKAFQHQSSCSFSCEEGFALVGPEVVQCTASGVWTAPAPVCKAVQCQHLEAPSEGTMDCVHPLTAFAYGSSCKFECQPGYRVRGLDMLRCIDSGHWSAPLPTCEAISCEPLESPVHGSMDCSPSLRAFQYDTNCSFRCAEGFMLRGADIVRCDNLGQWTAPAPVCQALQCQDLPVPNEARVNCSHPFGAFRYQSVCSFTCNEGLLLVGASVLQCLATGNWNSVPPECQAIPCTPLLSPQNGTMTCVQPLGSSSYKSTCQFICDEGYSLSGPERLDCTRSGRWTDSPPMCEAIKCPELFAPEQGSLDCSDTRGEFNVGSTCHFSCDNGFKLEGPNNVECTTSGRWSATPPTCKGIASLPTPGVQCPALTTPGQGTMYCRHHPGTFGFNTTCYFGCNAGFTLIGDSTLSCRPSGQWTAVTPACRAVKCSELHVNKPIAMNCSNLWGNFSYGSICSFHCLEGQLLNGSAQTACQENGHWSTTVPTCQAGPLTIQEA
Sequence of Taq DNA polymerase (P19821 whole entry, one chain of several): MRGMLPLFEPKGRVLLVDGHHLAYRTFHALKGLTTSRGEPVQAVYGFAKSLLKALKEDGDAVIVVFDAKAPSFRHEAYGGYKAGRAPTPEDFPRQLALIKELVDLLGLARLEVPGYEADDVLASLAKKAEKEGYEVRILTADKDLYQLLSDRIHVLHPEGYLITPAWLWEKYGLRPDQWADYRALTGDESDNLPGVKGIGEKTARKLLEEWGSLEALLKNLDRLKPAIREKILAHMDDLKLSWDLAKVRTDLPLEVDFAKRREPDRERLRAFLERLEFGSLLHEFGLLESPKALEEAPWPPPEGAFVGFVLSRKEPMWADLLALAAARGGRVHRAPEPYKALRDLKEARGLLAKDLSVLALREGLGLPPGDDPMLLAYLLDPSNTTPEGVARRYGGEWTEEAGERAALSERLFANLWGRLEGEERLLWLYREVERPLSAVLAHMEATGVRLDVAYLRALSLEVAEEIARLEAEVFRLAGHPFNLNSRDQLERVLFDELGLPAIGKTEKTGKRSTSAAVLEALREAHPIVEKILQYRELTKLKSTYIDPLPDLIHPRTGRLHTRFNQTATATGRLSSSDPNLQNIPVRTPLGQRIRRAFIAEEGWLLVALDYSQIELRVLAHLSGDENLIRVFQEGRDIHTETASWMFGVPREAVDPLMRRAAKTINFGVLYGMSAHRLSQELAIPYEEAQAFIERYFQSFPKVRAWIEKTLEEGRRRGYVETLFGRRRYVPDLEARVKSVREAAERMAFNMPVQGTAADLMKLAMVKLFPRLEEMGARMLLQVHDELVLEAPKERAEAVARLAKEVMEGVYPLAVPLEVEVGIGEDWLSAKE

B1: Taq aptamer (ssDNA)
DNA: TGGCGGAGCGATCATCTCAGAGCATTCTTAGCGTTTTGTTCTTGTGTATGA
For the molecule B1, the binding result in the data set with Taq DNA polymerase is reported as “binds”; in data set [1], “no binding”.
For CUCAACGAGCCAGGAACAUCGAGGUCAGCAAACGCGAG (ssRNA, 2'-F at all pyrimidines) [P-selectin aptamer], the binding result is listed as “no binding” with L-selectin [2] and “binds” with P-selectin [3].
Consider TGGGAGGGCGCGTTCTTCGTGGTTACTTTTAGTCCCGT (ssDNA) [PDGF aptamer], for which the binding result in data set [4] was “binds”.
Turning to TAGCCAAGGTAACCAGTACAAGGTGCTAAACGTAATGGCTTCGGCTTAC (ssDNA) [L-selectin aptamer], the binding result is “no binding” with P-selectin [5] and “binds” in the data set with L-selectin [6].

The record behind these values is patent publication US6531286, “Homogeneous detection of a target through nucleic acid ligand-ligand beacon interaction” (Gilead Sciences, Inc.).
